Reference: patent publication US20240124590A1 (ULTRAHUMAN EIGHT, published 2024)

T1: cynomolgus monkey PD1 human Fc tagged recombinant protein (cynomolgus monkey, UniProt Q15116 25-170 (human entry), limits assumed)
T1 construct: also called cyPD1-Fc; cyPD-1-Fc; not shown: human Fc tag
T1 chain: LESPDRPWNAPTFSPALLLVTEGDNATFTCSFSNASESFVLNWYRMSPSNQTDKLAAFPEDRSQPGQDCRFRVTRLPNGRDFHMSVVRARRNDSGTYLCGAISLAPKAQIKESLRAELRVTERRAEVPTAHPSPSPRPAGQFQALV

T2: cynomolgus monkey PD1 His tag (monomeric) (cynomolgus monkey, UniProt Q15116 25-170 (human entry), limits assumed)
T2 construct: Soluble monomeric analyte; whole entry named; also called monomeric cyno PD1; not shown: His tag
T2 chain: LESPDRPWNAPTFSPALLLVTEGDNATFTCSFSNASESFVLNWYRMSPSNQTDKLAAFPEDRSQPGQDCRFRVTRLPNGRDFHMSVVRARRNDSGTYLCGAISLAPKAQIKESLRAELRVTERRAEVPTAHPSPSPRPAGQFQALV

T3: cyno PD1 expressed on CHO-K1 cells (cynomolgus monkey, UniProt Q15116 25-288 (human entry))
T3 construct: also called cyno PD1+ CHO cells
T3 chain: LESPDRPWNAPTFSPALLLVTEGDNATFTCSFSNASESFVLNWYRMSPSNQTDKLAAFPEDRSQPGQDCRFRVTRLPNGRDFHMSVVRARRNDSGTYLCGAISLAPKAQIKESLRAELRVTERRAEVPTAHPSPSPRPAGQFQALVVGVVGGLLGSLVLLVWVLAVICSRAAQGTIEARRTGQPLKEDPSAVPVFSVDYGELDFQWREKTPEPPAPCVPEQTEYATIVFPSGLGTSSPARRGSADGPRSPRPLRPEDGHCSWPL

T4: human ULBP2 (UL16 binding protein 2) on transfected HEK293 cells (human, UniProt Q9BZM5 26-217)
T4 sequence: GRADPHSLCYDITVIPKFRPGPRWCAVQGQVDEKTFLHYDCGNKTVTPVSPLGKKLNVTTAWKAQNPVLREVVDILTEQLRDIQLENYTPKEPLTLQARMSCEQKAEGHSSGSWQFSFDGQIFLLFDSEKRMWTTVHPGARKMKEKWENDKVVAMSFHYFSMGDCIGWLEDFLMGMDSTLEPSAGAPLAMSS


Columns and labels:
[1] = molecular target: T5, human PD1 human Fc tagged recombinant protein (human, UniProt Q15116 25-170, limits assumed); assay: direct ELISA, Fab on coated PD1-Fc
T5 construct: also called huPD1-Fc; huPD-1-Fc; not shown: human Fc tag
T5 sequence (Q15116 25-170 limits assumed): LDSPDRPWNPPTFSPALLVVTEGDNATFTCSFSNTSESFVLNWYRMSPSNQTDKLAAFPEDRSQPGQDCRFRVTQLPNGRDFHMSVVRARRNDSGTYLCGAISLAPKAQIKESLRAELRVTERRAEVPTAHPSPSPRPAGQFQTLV
Description: (§1) Binding and cross-reactivity of the lead panel to the recombinant proteins was initially assessed by binding ELISA. The human PD1 human Fc tagged recombinant protein and the cynomolgus monkey PD1 human Fc tagged recombinant protein were coated to the surface of MaxiSorp™ flat-bottom 96 well plate at 1 μg/ml. […] The Fabs were detected using mouse anti-c-myc antibody followed by donkey anti-mouse IgG conjugated to horseradish peroxidase. The IgGs were detected using the mouse anti-human IgG conjugated to horseradish peroxidase. Binding signals were visualized with 3,3′,5,5′-Tetrannethylbenzidine Substrate Solution (TMB) and the absorbance measured at 450 nm.
(§2) The top 12 clones were also expressed as Fab protein from E. coli expression, purified to homogeneity, quantified, and applied in direct ELISA binding analyses on human PD1-Fc and cyno PD1-Fc (FIGS. 2A&B, Table 5).

[2] = molecular target: T1, cynomolgus monkey PD1 human Fc tagged …; assay: direct ELISA, Fab on coated PD1-Fc
Description: as §1, §2

[3] = molecular target: T2, cynomolgus monkey PD1 His tag …; assay: SPR (Biacore), IgG captured, monomeric PD1-His analyte
Description: (§3) Affinity (KD) of purified IgGs was determined via SPR with antigen in-solution on a Biacore 3000 (GE). A mouse anti-human antibody (CH1 specific) was immobilized on a CM5 Sensor Chip to a level of 2000 RU in acetate buffer at pH 4.5 using amine coupling following the Wizard instructions for two channels. One channel was used for background signal correction. The standard running buffer HBS-EP pH 7.4 was used. Regeneration was performed with a single injection of 10 μl of 10 mM Glycine at pH 1.5 at 20 μl/minute. IgG samples were injected for 2 minutes at 50 nM at 30 μl/min followed by and off-rate of 60 seconds. […] The obtained sensorgrams were analysed using the Biacore 3000 evaluation (BIAevaluation) software. The KD was calculated by simultaneous fitting of the association and dissociation phases to a 1:1 Langmuir binding model.
(§4) Biacore analyses of binding affinity was performed for all IgGs to solution-phase, monomeric human and cyno PD1 proteins.

[4] = molecular target: T6, human PD1 His tagged (monomeric) (human, UniProt Q15116 25-170, limits assumed); assay: as above
T6 construct: Soluble monomeric analyte; whole entry named; also called monomeric human PD1; not shown: His tag
T6 sequence (Q15116 25-170 limits assumed): as above
Description: as §3, §4

[5] = molecular target: T7, human PD1 expressed on cells (human, UniProt Q15116 25-288); assay: flow cytometry, PD1 CHO-K1 cells
T7 construct: also called human PD1+ CHO cells; PD1-transfected HEK293 cells
T7 sequence (Q15116 25-288 limits assumed): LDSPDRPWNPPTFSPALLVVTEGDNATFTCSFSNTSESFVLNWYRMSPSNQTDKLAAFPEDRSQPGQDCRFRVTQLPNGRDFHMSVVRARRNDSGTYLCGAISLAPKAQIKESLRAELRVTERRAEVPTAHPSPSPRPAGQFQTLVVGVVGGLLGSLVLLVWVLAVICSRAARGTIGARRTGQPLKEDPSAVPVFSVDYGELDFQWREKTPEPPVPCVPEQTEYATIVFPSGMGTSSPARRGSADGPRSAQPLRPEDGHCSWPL
Description: (§5) Purified IgGs were tested in FACs for binding to human and cyno PD1 expressed on CHO-K1 stable cell lines and CHO-K1 wild-type cells. […] Binding of IgGs was detected with a mouse anti-human IgG conjugated to FITC. Results were analyzed by examining the Mean Fluorescence Intensity (MFI) of 10000 cells per sample in the BL-1 channel detector of a flow cytometer (Attune™ NxT Acoustic Focusing Cytometer, Invitrogen/ThermoFisher Scientific).
(§6) Antibodies to PD1 were analysed for concentration-dependent binding at the cell surface via flow cytometry. Initial analyses were performed on CHO cells stably-transfected with human or cyno PD1.

[6] = molecular target: T3, cyno PD1 expressed on CHO-K1 cells; assay: flow cytometry, PD1 CHO-K1 cells
Description: as §5, §6

[7] = molecular target: T8, human KDR (VEGFR2) on cells (human, UniProt P35968 20-1356); assay: cell microarray re-array, transfected HEK293
T8 construct: Transfected HEK293 cells (arrays, flow cytometry) and human VEGFR2 reporter cells
T8 sequence (P35968 20-1356 limits assumed): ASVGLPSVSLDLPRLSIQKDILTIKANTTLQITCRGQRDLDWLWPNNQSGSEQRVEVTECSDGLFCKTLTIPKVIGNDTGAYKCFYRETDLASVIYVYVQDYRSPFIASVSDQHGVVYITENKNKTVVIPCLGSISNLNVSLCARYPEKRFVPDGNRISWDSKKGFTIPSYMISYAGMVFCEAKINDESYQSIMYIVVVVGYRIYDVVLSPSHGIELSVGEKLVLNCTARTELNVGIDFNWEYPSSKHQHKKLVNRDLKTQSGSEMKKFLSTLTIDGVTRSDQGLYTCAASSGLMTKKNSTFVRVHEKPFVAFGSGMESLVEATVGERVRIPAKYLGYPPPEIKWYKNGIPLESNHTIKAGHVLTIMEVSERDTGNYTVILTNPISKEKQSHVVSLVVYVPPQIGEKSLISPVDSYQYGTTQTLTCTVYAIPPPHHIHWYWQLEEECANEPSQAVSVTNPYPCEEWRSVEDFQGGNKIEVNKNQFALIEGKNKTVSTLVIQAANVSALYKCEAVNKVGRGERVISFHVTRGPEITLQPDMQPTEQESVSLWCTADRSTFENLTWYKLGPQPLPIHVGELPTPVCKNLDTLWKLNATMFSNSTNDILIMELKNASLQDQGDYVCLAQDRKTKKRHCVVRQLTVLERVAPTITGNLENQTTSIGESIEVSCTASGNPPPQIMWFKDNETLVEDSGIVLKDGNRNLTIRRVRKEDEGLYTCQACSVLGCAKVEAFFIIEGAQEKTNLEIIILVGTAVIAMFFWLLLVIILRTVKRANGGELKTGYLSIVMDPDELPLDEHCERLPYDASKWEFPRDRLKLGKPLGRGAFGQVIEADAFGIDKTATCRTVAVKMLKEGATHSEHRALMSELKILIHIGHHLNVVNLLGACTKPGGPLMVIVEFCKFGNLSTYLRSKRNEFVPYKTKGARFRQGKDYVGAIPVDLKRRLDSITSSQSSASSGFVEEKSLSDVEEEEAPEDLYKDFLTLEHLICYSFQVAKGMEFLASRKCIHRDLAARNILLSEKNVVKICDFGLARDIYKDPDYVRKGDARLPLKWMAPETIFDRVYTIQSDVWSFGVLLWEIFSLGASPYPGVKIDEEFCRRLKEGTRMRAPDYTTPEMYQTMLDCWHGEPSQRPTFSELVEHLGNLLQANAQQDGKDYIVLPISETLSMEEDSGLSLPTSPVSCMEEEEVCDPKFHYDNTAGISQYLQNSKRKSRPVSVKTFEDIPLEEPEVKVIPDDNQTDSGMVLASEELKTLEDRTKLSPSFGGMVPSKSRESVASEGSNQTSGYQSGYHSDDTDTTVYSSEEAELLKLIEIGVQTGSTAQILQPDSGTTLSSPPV
Description: (§7) Antibody binding was detected using AF647 fluorescent secondary anti-human IgG1 antibody. Primary hits (duplicate spots) were identified by analysing fluorescence (AF647 and ZsGreen1) on ImageQuant. Vectors encoding all hits were sequenced to confirm their correct identities. […] Slides were analysed as above. Flow cytometry confirmation screen: Expression vectors encoding ZsGreen1 only, or ZsGreen1 and PD1, FZDS, KDR or ULBP2, were transfected into human HEK293 cells. Each live transfectant was incubated with […] of each of the test antibodies and the Isotype control antibody. Cells were washed, and incubated with the same AF647 anti-human IgG Fc detection antibody as used in the cell microarray screens. Cells were again washed, and analysed by flow cytometry using an Accuri flow cytometer (BD). A 7AAD live/dead dye was used to exclude dead cells, and ZsGreen1-positive cells (i.e. transfected cells) were selected for analyses.

[8] = molecular target: T9, human FZD5 (frizzled class receptor 5) on transfected HEK293 cells (human, UniProt Q13467 27-585); assay: cell microarray re-array, transfected HEK293
T9 construct: also called FZDS; FZ5
T9 sequence (Q13467 27-585 limits assumed): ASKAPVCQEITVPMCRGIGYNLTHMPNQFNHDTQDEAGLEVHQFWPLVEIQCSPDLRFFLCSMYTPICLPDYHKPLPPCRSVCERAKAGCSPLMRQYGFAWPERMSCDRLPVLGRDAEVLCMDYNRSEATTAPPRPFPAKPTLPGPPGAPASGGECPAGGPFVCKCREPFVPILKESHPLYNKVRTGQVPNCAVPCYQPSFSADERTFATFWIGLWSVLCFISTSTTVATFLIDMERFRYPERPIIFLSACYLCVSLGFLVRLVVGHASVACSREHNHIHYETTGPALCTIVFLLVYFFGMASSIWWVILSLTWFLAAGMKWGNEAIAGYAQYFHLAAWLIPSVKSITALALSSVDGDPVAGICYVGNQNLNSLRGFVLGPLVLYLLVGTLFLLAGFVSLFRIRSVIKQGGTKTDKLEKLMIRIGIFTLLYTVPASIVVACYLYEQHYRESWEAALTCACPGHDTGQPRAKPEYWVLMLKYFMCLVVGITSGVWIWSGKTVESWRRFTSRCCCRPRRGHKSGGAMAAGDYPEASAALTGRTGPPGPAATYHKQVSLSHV
Description: as §7

[9] = molecular target: T4, human ULBP2 (UL16 binding protein 2) on …; assay: cell microarray re-array, transfected HEK293
Description: as §7

[10] = molecular target: T5, human PD1 human Fc tagged recombinant …; assay: direct ELISA, IgG1null on coated PD1-Fc
Description: as §1
(§8) The purified IgGs described above were then tested for binding to human and cyno PD1-Fc in direct titration ELISA format. […] As the ELISA EC50 values for directly binding IgGs are strongly influenced by avidity, rather than true 1:1 binding affinity, we then proceeded to perform higher-sensitivity, solution-phase epitope competition and Biacore binding affinity determinations, as outlined below.

[11] = molecular target: T1, cynomolgus monkey PD1 human Fc tagged …; assay: direct ELISA, IgG1null on coated PD1-Fc
Description: as §1, §8

[12] = molecular target: T10, biotinylated human PD1-His/AviTag (human, UniProt Q15116 25-170, limits assumed, biotinylated); assay: Alphascreen competition vs IgG1-Mab005 (humanized)
T10 construct: Alphascreen antigen; whole entry named; also called biotinylated monomeric human PD1; not shown: His/AviTag
T10 sequence (Q15116 25-170 limits assumed): as the sequence (Q15116 25-170 limits assumed) above
Description: The AlphaScreen assay (Perkin Elmer) was performed in a 25 μl final volume in 384-well white microtiter plates (Greiner). The reaction buffer contained 1×PBS pH 7.3 (Oxoid, Cat. nr. BRO014G) and 0.05% (v/v) Tween® 20 (Sigma, Cat. nr. P9416). Purified IgG samples were titrated in three fold serial dilutions starting at 500 nM final concentration and incubated with biotinylated human PD1-His/AviTag at 0.6 nM final concentration for 20 minutes at room temperature. […] Followed by addition of the Streptavidin Donor beads at 20 μg/ml (final concentration) and incubation for 30 minutes at room temperature. The emission of light was measured in the EnVision multilabel plate reader (Perkin Elmer) and analysed using the EnVision manager software. Values were reported as Counts Per Second (CPS) and corrected for crosstalk.

[13] = molecular target: T7, human PD1 expressed on cells; assay: cell-based or functional assay
[14] = molecular target: T5, human PD1 human Fc tagged recombinant …; assay: direct ELISA, IgG1null on coated PD1-Fc; remark: listed apart in the source
Description: as §1, §8

[15] = molecular target: T1, cynomolgus monkey PD1 human Fc tagged …; assay: direct ELISA, IgG1null on coated PD1-Fc
Description: as §1, §8

Row | EC50 [1] | EC50 [2] | Kd [3] | koff [3] | kon [3] | Kd [4] | koff [4] | kon [4] | EC50 [5] | EC50 [6] | binding result [7] | binding result [8] | binding result [9] | EC50 [10] | EC50 [11] | IC50 [12] | EC50 (ng/ml), IgG1null blockade of human PD1/PD-L1 [13] | EC50 [14] | EC50 [15] | Binder
1 | 0.743 nM | 1.01 nM |  |  |  |  |  |  |  |  |  |  |  |  |  |  |  |  |  | Fab06D02 (Fab, V domains shown, Human Fab from E. coli, His/c-myc tags) VH: EVQLVESGGGLVQPGGSLRLSCAASGFTFSSYLMSWVRQAPGKGLEWVATISGGGSETYYVDSVKGRFTISRDNAKNSLYLQMNSLRAEDTAVYYCARQLYGFDYWGQGTLVTVSS VL: not shown
2 | 1.25 nM |  |  |  |  |  |  |  |  |  |  |  |  |  |  |  |  |  |  | Fab-Mab005 (Fab, V domains shown, Purified monomeric human Fab from E. coli, His tag, detected by c-myc; also called Mab005 (humanized) Fab) VH: EVQLVESGGGLVQPGGSLRLSCAASGFTFSSYMMSWVRQAPGKGLEWVATISGGGANTYYPDSVKGRFTISRDNAKNSLYLQMNSLRAEDTAVYYCARQLYYFDYWGQGTTVTVSS VL: DIQMTQSPSSLSASVGDRVTITCLASQTIGTWLTWYQQKPGKAPKLLIYTATSLADGVPSRFSGSGSGTDFTLTISSLQPEDFATYYCQQVYSIPWTFGGGTKVEIK
3 |  |  | 6.9 nM | 0.00097 s⁻¹ | 140000 M⁻¹ s⁻¹ | 2.57 nM | 0.00046 s⁻¹ | 180000 M⁻¹ s⁻¹ | 1.87 nM | 1.33 nM | no binding (tested: 5 µg/ml) | no binding (tested: 5 µg/ml) | no binding (tested: 5 µg/ml) | 0.125 nM | 0.0959 nM | 3 nM | 212 ng/mL |  |  | IgG1-14 (antibody, V domains shown, Designer; human IgG1null + Ckappa; also called Antibody IgG1-14) VH: EVQLVESGGGLVQPGGSLRLSCAASGFTFSSYLMSWVRQAPGKGLEWVATISGGGSEKYYVDSVKGRFTISRDNAKNSLYLQMNSLRAEDTAVYYCARQLYAFDYWGQGTLVTVSS VL: not shown
4 |  |  | 4.7 nM | 0.00064 s⁻¹ | 140000 M⁻¹ s⁻¹ | 1.6 nM | 0.00032 s⁻¹ | 200000 M⁻¹ s⁻¹ | 1.95 nM | 2.17 nM |  |  |  |  |  | 4.01 nM | 188 ng/mL | 0.112 nM | 0.12 nM | IgG1-12H04 (antibody, V domains shown, Library-derived; human IgG1null + Ckappa) VH: EVQLVESGGGLVQPGGSLRLSCAASGFTFSSYLMSWVRQAPGKGLEWVATISGGGAEKYYVDSVKGRFTISRDNAKNSLYLQMNSLRAEDTAVYYCARQLYGFDYWGQGTLVTVSS VL: not shown
5 |  |  | 7.1 nM | 0.00073 s⁻¹ | 100000 M⁻¹ s⁻¹ | 3.01 nM | 0.0004 s⁻¹ | 130000 M⁻¹ s⁻¹ | 0.978 nM | 0.861 nM | no binding (tested: 5 µg/ml) | no binding (tested: 5 µg/ml) | no binding (tested: 5 µg/ml) | 0.0492 nM | 0.0498 nM | 1.41 nM | 172 ng/mL |  |  | IgG1-11 (antibody, V domains shown, Designer; human IgG1null + Ckappa; also called Antibody IgG1-11) VH: EVQLVESGGGLVQPGGSLRLSCAASGFTFSSYLMSWVRQAPGKGLEWVATISGGGSEKYYVDSVKGRFTISRDNAKNSLYLQMNSLRAEDTAVYYCARQLYFFDYWGQGTLVTVSS VL: not shown
6 | 0.708 nM | 1.4 nM |  |  |  |  |  |  |  |  |  |  |  |  |  |  |  |  |  | Fab12H04 (Fab, V domains shown, Human Fab from E. coli, His/c-myc tags) VH: EVQLVESGGGLVQPGGSLRLSCAASGFTFSSYLMSWVRQAPGKGLEWVATISGGGAEKYYVDSVKGRFTISRDNAKNSLYLQMNSLRAEDTAVYYCARQLYGFDYWGQGTLVTVSS VL: not shown
